In publication PMC1331985 (Nucleic Acids Research, 2006):
Numbering of substitutions follows the chain as printed. Names may count otherwise.

B1: Est3p-K71A (natural protein, S. cerevisiae, UniProt Q03096 1-181, looked up)
chain: MPKVILESHSKPTDSVFLQPWIKALIEDNSEHDQYHPSGHVIPSLTKQDLALPHMSPTILTNPCHFAKITAFYNVCDYKVYASIRDSSHQILVEFSQECVSNFERTHNCRITSETTNCLMIIGDADLVYVTNSRAMSHFKICLSNISSKEIVPVLNVNQATIFDIDQVGSLSTFPFVYKYL
B2: Est3p-E104A (natural protein, S. cerevisiae, UniProt Q03096 1-181, looked up)
chain: B1 chain with A71K, E104A
B3: Est3p-T115A (natural protein, S. cerevisiae, UniProt Q03096 1-181, looked up)
chain: B1 chain with A71K, T115A
B4: Est3p-K3A (natural protein, S. cerevisiae, UniProt Q03096 1-181, looked up)
chain: B1 chain with K3A, A71K
B5: Est3p-F72A (natural protein, S. cerevisiae, UniProt Q03096 1-181, looked up)
chain: B1 chain with A71K, F72A
B6: Est3p-S87A (natural protein, S. cerevisiae, UniProt Q03096 1-181, looked up)
chain: B1 chain with A71K, S87A

Target: the molecule itself
Assay: SEC

Protein | binding result
B1 | binds
B2 | binds
B3 | binds
B4 | binds
B5 | binds
B6 | binds
